Data published in patent publication US20180155450A1 (Sanofi, published 2018).
Where two headings read alike, the source gives them in different places.

Columns and labels:
[1] = molecular target: T1, recombinant human IL4 (human, UniProt P05112 25-153); experiment: cell-based or functional assay
T1 sequence (looked up): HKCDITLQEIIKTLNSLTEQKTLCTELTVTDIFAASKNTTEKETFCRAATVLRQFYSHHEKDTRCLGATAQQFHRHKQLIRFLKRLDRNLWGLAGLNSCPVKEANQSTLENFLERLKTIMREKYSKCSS

[2] = molecular target: T1, recombinant human IL4; experiment: SPR (Biacore 3000), antibody captured, antigen as analyte
Experimental: (§1) Kinetic binding analysis by Biacore was performed as follows. Surface plasmon resonance technology on a Biacore 3000 (GE Healthcare) was used for detailed kinetic characterization of purified antibodies. […] Chip surfaces were regenerated with 10 mM glycine pH 2.5. Kinetic parameters were analyzed and calculated in the BIAevaluation program package v4.1 using a flow cell without captured antibody as a reference.

[3] = molecular target: T2, recombinant human IL4 (human, UniProt P05112 25-153); experiment: SPR, BIACORE 3000; antibody captured by anti-human Fc, antigen 0-25 nM as analyte
T2 construct: also called Antigen1
T2 sequence (looked up): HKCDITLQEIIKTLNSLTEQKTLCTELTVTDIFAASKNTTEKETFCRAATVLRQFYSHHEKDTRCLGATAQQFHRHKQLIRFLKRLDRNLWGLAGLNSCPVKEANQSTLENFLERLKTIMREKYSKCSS
Experimental: Kinetic characterization of purified antibodies was performed using surface plasmon resonance technology on a BIACORE 3000 (GE Healthcare). […] Chip surfaces were regenerated with 10 mM glycine, pH 2.5. Kinetic parameters were analyzed and calculated in the BIAevaluation program package v4.1 using a flow cell without captured antibody as reference.

[4] = molecular target: T1, recombinant human IL4; experiment: cell-based or functional assay; remark: listed apart in the source
[5] = molecular target: T1, recombinant human IL4; experiment: SPR (Biacore 3000), antibody captured, antigen as analyte; remark: listed apart in the source
Experimental: as §1

[6] = molecular target: T1, recombinant human IL4; experiment: cell-based or functional assay; remark: listed apart in the source
[7] = molecular target: T1, recombinant human IL4; experiment: SPR (Biacore 3000), antibody captured, antigen as analyte; remark: listed apart in the source
Experimental: as §1

[8] = molecular target: T2, recombinant human IL4; experiment: SPR, Biacore 3000; CODV-Ig captured by anti-human Fc, antigen as analyte
Experimental: as §1

[9] = molecular target: T3, recombinant human IL13 (human, UniProt P35225 35-146, limits assumed); experiment: as above
T3 construct: also called Antigen2
T3 sequence (P35225 35-146 limits assumed): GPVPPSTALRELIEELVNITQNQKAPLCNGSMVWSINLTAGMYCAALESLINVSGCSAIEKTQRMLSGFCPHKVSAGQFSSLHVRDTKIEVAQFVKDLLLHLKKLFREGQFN
Experimental: as §1

[10] = molecular target: T2, recombinant human IL4; experiment: kinetic table drawn in the figure; assay not named in Example 9, parental rows equal the BIACORE values of Table 6

B1: CODV-Ig Batch ID 508 (IL4 × IL13 on HC; L1 HIDSPNK, L2 QRIEG, L3 V, L4 SL) (bispecific antibody)
heavy: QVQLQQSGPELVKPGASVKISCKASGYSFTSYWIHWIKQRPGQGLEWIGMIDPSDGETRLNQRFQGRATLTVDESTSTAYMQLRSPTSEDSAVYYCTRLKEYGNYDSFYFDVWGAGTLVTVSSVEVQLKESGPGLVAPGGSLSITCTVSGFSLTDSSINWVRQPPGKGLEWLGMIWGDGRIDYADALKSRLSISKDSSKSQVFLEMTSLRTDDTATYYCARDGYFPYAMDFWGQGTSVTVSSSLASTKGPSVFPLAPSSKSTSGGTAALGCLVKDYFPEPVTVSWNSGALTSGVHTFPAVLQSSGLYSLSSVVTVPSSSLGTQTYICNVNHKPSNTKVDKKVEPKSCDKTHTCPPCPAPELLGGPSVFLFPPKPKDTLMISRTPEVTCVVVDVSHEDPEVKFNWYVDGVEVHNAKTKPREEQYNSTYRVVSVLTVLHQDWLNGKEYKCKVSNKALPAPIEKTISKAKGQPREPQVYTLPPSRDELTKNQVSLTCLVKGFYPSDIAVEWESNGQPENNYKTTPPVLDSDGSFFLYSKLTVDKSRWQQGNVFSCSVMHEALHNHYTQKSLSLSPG
light: DIVLTQSPASLAVSLGQRATISCRASESVDSYGQSYMHWYQQKAGQPPKLLIYLASNLESGVPARFSGSGSRTDFTLTIDPVQAEDAATYYCQQNAEDSRTFGGGTKLEIKHIDSPNKDIQMTQSPASLSVSVGDTITLTCHASQNIDVWLSWFQQKPGNIPKLLIYKASNLHTGVPSRFSGSGSGTGFTLTISSLQPEDIATYYCQQAHSYPFTFGGGTKLEIKQRIEGRTVAAPSVFIFPPSDEQLKSGTASVVCLLNNFYPREAKVQWKVDNALQSGNSQESVTEQDSKDSTYSLSSTLTLSKADYEKHKVYACEVTHQGLSSPVTKSFNRGEC
- IC50 Cellular Assay IL4 [nM] (HEK-Blue IL-4/IL-13 reporter cells, SEAP) [1]: 0.054 nM
- Kd [2]: 0.001 nM

B2: parental anti-IL4 mAb (antibody, V domains shown)
VH: QVQLQQSGPELVKPGASVKISCKASGYSFTSYWIHWIKQRPGQGLEWIGMIDPSDGETRLNQRFQGRATLTVDESTSTAYMQLRSPTSEDSAVYYCTRLKEYGNYDSFYFDVWGAGTLVTVSS
VL: DIQMTQSPASLSVSVGDTITLTCHASQNIDVWLSWFQQKPGNIPKLLIYKASNLHTGVPSRFSGSGSGTGFTLTISSLQPEDIATYYCQQAHSYPFTFGGGTKLEIKR
notes: also called parental humanized anti-IL4; 8D4
- Kd [3]: 0.00783 nM
- koff [3]: 0.000195 s⁻¹
- kon [3]: 2.49e+07 M⁻¹ s⁻¹

B3: CODV-Ig Batch ID 602 (Batch ID 204 with S376C & P397C in IGHG1) (bispecific antibody)
heavy: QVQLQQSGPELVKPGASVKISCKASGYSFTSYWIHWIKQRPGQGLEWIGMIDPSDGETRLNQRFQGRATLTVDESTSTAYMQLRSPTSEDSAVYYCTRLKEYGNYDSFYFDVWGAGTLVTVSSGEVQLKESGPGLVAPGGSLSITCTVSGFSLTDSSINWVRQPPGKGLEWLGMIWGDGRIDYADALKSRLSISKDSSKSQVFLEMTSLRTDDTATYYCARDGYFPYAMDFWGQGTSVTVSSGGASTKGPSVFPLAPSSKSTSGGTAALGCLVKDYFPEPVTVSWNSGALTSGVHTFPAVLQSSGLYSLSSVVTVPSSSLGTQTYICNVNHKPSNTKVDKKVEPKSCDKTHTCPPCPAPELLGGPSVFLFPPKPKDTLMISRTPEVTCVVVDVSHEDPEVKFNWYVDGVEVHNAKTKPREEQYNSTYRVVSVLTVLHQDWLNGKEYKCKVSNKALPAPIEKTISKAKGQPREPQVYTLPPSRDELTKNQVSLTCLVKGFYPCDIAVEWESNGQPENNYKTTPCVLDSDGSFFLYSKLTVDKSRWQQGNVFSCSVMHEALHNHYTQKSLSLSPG
light: DIVLTQSPASLAVSLGQRATISCRASESVDSYGQSYMHWYQQKAGQPPKLLIYLASNLESGVPARFSGSGSRTDFTLTIDPVQAEDAATYYCQQNAEDSRTFGGGTKLEIKGGGGGGGDIQMTQSPASLSVSVGDTITLTCHASQNIDVWLSWFQQKPGNIPKLLIYKASNLHTGVPSRFSGSGSGTGFTLTISSLQPEDIATYYCQQAHSYPFTFGGGTKLEIKGGGGGRTVAAPSVFIFPPSDEQLKSGTASVVCLLNNFYPREAKVQWKVDNALQSGNSQESVTEQDSKDSTYSLSSTLTLSKADYEKHKVYACEVTHQGLSSPVTKSFNRGEC
modifications: Engineered cysteine pair in CH3 (intended intradomain disulfide C376-C397, patent's count).
notes: The mutation numbers are those of the column 'Introduced Mutations IGHG1'
- IC50 Cellular Assay IL4 [nM] (HEK-Blue IL-4/IL-13 reporter cells, SEAP) [4]: 0.034 nM
- Kd [5]: 0.01 nM

B4: CODV-Ig Batch ID 603 (Batch ID 204 with P446G447 to G446E447C448 in IGHG1) (bispecific antibody)
heavy: QVQLQQSGPELVKPGASVKISCKASGYSFTSYWIHWIKQRPGQGLEWIGMIDPSDGETRLNQRFQGRATLTVDESTSTAYMQLRSPTSEDSAVYYCTRLKEYGNYDSFYFDVWGAGTLVTVSSGEVQLKESGPGLVAPGGSLSITCTVSGFSLTDSSINWVRQPPGKGLEWLGMIWGDGRIDYADALKSRLSISKDSSKSQVFLEMTSLRTDDTATYYCARDGYFPYAMDFWGQGTSVTVSSGGASTKGPSVFPLAPSSKSTSGGTAALGCLVKDYFPEPVTVSWNSGALTSGVHTFPAVLQSSGLYSLSSVVTVPSSSLGTQTYICNVNHKPSNTKVDKKVEPKSCDKTHTCPPCPAPELLGGPSVFLFPPKPKDTLMISRTPEVTCVVVDVSHEDPEVKFNWYVDGVEVHNAKTKPREEQYNSTYRVVSVLTVLHQDWLNGKEYKCKVSNKALPAPIEKTISKAKGQPREPQVYTLPPSRDELTKNQVSLTCLVKGFYPSDIAVEWESNGQPENNYKTTPPVLDSDGSFFLYSKLTVDKSRWQQGNVFSCSVMHEALHNHYTQKSLSLSGEC
light: DIVLTQSPASLAVSLGQRATISCRASESVDSYGQSYMHWYQQKAGQPPKLLIYLASNLESGVPARFSGSGSRTDFTLTIDPVQAEDAATYYCQQNAEDSRTFGGGTKLEIKGGGGGGGDIQMTQSPASLSVSVGDTITLTCHASQNIDVWLSWFQQKPGNIPKLLIYKASNLHTGVPSRFSGSGSGTGFTLTISSLQPEDIATYYCQQAHSYPFTFGGGTKLEIKGGGGGRTVAAPSVFIFPPSDEQLKSGTASVVCLLNNFYPREAKVQWKVDNALQSGNSQESVTEQDSKDSTYSLSSTLTLSKADYEKHKVYACEVTHQGLSSPVTKSFNRGEC
notes: C-terminal change P446G447 to G446E447C448
- IC50 Cellular Assay IL4 [nM] (HEK-Blue IL-4/IL-13 reporter cells, SEAP) [4]: 0.036 nM
- Kd [5]: 0.004 nM

B5: CODV-Ig Batch ID 803 (Batch ID 204 with LC G115C, HC Q43C) (bispecific antibody)
heavy: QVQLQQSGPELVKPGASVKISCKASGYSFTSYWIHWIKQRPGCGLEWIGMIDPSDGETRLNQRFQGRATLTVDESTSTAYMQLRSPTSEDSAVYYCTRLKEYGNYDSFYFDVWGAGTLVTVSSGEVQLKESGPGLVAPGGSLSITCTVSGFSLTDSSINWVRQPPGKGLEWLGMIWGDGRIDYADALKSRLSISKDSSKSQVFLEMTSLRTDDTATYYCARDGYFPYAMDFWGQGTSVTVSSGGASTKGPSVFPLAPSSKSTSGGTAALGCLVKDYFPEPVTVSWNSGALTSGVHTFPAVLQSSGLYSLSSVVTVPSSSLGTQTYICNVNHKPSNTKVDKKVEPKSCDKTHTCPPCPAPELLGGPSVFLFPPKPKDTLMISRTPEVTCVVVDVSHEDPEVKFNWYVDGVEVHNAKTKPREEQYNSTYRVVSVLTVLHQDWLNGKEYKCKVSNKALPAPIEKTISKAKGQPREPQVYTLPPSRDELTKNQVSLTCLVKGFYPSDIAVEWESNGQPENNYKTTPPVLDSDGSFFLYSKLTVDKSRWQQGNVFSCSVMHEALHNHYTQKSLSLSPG
light: DIVLTQSPASLAVSLGQRATISCRASESVDSYGQSYMHWYQQKAGQPPKLLIYLASNLESGVPARFSGSGSRTDFTLTIDPVQAEDAATYYCQQNAEDSRTFGGGTKLEIKGGGCGGGDIQMTQSPASLSVSVGDTITLTCHASQNIDVWLSWFQQKPGNIPKLLIYKASNLHTGVPSRFSGSGSGTGFTLTISSLQPEDIATYYCQQAHSYPFTFGGGTKLEIKGGGGGRTVAAPSVFIFPPSDEQLKSGTASVVCLLNNFYPREAKVQWKVDNALQSGNSQESVTEQDSKDSTYSLSSTLTLSKADYEKHKVYACEVTHQGLSSPVTKSFNRGEC
modifications: Engineered cysteine pair LC C115 (in L1) and HC C43, intended inter-chain disulfide.
notes: The mutation numbers are read as counts along the whole chain: G115C lies in L1 as printed; Q43C lies in the N-terminal anti-IL4 VH
- IC50 Cellular Assay IL4 [nM] (HEK-Blue IL-4/IL-13 reporter cells, SEAP) [6]: 0.036 nM
- Kd [7]: 0.006 nM

B6: CODV-Ig Batch ID 804 (Batch ID 204 with LC G116C, HC Q43C) (bispecific antibody)
heavy: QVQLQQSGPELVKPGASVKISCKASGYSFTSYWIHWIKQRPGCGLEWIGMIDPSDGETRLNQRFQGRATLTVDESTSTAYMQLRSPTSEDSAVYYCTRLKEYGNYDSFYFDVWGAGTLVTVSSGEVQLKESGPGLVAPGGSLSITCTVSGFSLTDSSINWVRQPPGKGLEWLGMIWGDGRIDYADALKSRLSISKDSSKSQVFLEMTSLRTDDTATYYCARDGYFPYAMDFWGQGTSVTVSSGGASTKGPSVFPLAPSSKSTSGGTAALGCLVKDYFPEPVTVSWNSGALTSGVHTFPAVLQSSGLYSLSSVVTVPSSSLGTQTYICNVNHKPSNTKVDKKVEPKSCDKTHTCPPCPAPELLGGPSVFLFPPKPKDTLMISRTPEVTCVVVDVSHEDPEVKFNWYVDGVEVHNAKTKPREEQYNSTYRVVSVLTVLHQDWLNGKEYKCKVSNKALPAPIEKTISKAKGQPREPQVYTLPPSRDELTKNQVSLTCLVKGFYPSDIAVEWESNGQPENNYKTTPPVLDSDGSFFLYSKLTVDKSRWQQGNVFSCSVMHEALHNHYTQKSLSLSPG
light: DIVLTQSPASLAVSLGQRATISCRASESVDSYGQSYMHWYQQKAGQPPKLLIYLASNLESGVPARFSGSGSRTDFTLTIDPVQAEDAATYYCQQNAEDSRTFGGGTKLEIKGGGGCGGDIQMTQSPASLSVSVGDTITLTCHASQNIDVWLSWFQQKPGNIPKLLIYKASNLHTGVPSRFSGSGSGTGFTLTISSLQPEDIATYYCQQAHSYPFTFGGGTKLEIKGGGGGRTVAAPSVFIFPPSDEQLKSGTASVVCLLNNFYPREAKVQWKVDNALQSGNSQESVTEQDSKDSTYSLSSTLTLSKADYEKHKVYACEVTHQGLSSPVTKSFNRGEC
modifications: Engineered cysteine pair LC C116 (in L1) and HC C43, intended inter-chain disulfide.
notes: The mutation numbers are read as counts along the whole chain: G116C lies in L1 as printed; Q43C lies in the N-terminal anti-IL4 VH
- IC50 Cellular Assay IL4 [nM] (HEK-Blue IL-4/IL-13 reporter cells, SEAP) [6]: 0.04 nM
- Kd [7]: 0.002 nM

B7: CODV-Ig Batch ID 805 (Batch ID 204 with LC G117C, HC Q43C) (bispecific antibody)
heavy: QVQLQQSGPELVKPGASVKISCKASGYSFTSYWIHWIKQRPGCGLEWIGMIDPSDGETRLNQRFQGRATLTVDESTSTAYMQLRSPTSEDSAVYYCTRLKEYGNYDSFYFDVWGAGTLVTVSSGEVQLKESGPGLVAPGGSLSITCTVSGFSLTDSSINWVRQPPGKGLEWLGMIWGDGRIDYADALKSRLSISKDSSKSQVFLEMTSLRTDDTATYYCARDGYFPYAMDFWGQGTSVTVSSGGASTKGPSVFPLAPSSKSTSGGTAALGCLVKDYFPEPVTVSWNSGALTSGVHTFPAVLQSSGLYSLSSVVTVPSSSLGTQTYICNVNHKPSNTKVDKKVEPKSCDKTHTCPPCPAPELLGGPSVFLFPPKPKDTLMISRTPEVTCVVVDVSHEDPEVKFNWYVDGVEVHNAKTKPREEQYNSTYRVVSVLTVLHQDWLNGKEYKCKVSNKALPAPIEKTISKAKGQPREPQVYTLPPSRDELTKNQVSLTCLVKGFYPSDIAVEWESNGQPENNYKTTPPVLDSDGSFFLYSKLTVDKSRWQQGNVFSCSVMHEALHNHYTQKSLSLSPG
light: DIVLTQSPASLAVSLGQRATISCRASESVDSYGQSYMHWYQQKAGQPPKLLIYLASNLESGVPARFSGSGSRTDFTLTIDPVQAEDAATYYCQQNAEDSRTFGGGTKLEIKGGGGGCGDIQMTQSPASLSVSVGDTITLTCHASQNIDVWLSWFQQKPGNIPKLLIYKASNLHTGVPSRFSGSGSGTGFTLTISSLQPEDIATYYCQQAHSYPFTFGGGTKLEIKGGGGGRTVAAPSVFIFPPSDEQLKSGTASVVCLLNNFYPREAKVQWKVDNALQSGNSQESVTEQDSKDSTYSLSSTLTLSKADYEKHKVYACEVTHQGLSSPVTKSFNRGEC
notes: The mutation numbers are read as counts along the whole chain: G117C lies in L1 as printed; Q43C lies in the N-terminal anti-IL4 VH
- IC50 Cellular Assay IL4 [nM] (HEK-Blue IL-4/IL-13 reporter cells, SEAP) [6]: 0.047 nM
- Kd [7]: 0.007 nM

B8: CODV-Ig Batch ID 802 (Batch ID 204 with LC G114C, HC Q43C) (bispecific antibody)
heavy: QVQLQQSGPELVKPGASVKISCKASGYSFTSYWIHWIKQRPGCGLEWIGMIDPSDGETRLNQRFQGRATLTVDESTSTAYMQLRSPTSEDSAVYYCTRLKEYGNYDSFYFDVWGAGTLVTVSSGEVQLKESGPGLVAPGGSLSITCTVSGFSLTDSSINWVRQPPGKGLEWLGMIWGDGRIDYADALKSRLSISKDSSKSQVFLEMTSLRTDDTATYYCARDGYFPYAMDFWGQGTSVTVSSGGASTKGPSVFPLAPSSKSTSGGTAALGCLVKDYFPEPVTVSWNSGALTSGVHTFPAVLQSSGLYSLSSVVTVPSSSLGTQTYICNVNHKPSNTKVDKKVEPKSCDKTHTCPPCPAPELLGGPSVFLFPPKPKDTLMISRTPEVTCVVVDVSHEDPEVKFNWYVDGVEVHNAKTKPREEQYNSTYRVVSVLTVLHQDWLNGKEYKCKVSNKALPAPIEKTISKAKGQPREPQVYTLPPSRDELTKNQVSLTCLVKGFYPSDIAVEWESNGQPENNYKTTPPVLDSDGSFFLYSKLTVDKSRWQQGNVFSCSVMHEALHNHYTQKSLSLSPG
light: DIVLTQSPASLAVSLGQRATISCRASESVDSYGQSYMHWYQQKAGQPPKLLIYLASNLESGVPARFSGSGSRTDFTLTIDPVQAEDAATYYCQQNAEDSRTFGGGTKLEIKGGCGGGGDIQMTQSPASLSVSVGDTITLTCHASQNIDVWLSWFQQKPGNIPKLLIYKASNLHTGVPSRFSGSGSGTGFTLTISSLQPEDIATYYCQQAHSYPFTFGGGTKLEIKGGGGGRTVAAPSVFIFPPSDEQLKSGTASVVCLLNNFYPREAKVQWKVDNALQSGNSQESVTEQDSKDSTYSLSSTLTLSKADYEKHKVYACEVTHQGLSSPVTKSFNRGEC
modifications: Engineered cysteine pair LC C114 (in L1) and HC C43, intended inter-chain disulfide.
notes: The mutation numbers are read as counts along the whole chain: G114C lies in L1 as printed; Q43C lies in the N-terminal anti-IL4 VH
- IC50 Cellular Assay IL4 [nM] (HEK-Blue IL-4/IL-13 reporter cells, SEAP) [6]: 0.027 nM
- Kd [7]: 0.006 nM

B9: CODV-Ig Batch ID 129 (IL4 × IL13 on LC; L1=1, L2=3, L3=2, L4=4) (bispecific antibody)
chain 1: not shown
chain 2: DIQMTQSPASLSVSVGDTITLTCHASQNIDVWLSWFQQKPGNIPKLLIYKASNLHTGVPSRFSGSGSGTGFTLTISSLQPEDIATYYCQQAHSYPFTFGGGTKLEIKGDIVLTQSPASLAVSLGQRATISCRASESVDSYGQSYMHWYQQKAGQPPKLLIYLASNLESGVPARFSGSGSRTDFTLTIDPVQAEDAATYYCQQNAEDSRTFGGGTKLEIKGGGRTVAAPSVFIFPPSDEQLKSGTASVVCLLNNFYPREAKVQWKVDNALQSGNSQESVTEQDSKDSTYSLSSTLTLSKADYEKHKVYACEVTHQGLSSPVTKSFNRGEC
- Kd [8]: 0.005 nM
- Kd [9]: 0.07 nM

B10: CODV-Ig Batch ID 507 (IL4 × IL13 on HC; L1 GQPKAAP, L2 QPKAA, L3 S, L4 RT) (bispecific antibody)
heavy: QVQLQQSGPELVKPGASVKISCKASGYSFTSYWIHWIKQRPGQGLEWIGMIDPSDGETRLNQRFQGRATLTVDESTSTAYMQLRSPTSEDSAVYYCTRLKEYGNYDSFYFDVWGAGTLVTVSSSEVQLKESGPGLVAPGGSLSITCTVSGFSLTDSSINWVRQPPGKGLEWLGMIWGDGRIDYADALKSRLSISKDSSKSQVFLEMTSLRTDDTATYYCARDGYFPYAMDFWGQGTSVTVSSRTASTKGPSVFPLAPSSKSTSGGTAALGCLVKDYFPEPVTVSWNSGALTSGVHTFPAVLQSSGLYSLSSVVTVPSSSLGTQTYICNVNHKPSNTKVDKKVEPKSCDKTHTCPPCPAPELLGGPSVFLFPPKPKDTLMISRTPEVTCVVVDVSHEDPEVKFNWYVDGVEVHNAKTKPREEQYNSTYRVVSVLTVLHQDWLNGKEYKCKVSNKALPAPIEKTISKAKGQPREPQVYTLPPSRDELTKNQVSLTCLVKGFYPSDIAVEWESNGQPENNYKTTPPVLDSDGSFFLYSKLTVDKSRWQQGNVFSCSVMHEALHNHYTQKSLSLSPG
light: DIVLTQSPASLAVSLGQRATISCRASESVDSYGQSYMHWYQQKAGQPPKLLIYLASNLESGVPARFSGSGSRTDFTLTIDPVQAEDAATYYCQQNAEDSRTFGGGTKLEIKGQPKAAPDIQMTQSPASLSVSVGDTITLTCHASQNIDVWLSWFQQKPGNIPKLLIYKASNLHTGVPSRFSGSGSGTGFTLTISSLQPEDIATYYCQQAHSYPFTFGGGTKLEIKQPKAARTVAAPSVFIFPPSDEQLKSGTASVVCLLNNFYPREAKVQWKVDNALQSGNSQESVTEQDSKDSTYSLSSTLTLSKADYEKHKVYACEVTHQGLSSPVTKSFNRGEC
- IC50 Cellular Assay IL4 [nM] (HEK-Blue IL-4/IL-13 reporter cells, SEAP) [1]: 0.04 nM
- Kd [2]: 0.001 nM

B11: TBTI/DVD-Ig molecule incorporating anti-IL4 and anti-IL13 sequences (FIG. 7, upper panel) (bispecific antibody)
heavy: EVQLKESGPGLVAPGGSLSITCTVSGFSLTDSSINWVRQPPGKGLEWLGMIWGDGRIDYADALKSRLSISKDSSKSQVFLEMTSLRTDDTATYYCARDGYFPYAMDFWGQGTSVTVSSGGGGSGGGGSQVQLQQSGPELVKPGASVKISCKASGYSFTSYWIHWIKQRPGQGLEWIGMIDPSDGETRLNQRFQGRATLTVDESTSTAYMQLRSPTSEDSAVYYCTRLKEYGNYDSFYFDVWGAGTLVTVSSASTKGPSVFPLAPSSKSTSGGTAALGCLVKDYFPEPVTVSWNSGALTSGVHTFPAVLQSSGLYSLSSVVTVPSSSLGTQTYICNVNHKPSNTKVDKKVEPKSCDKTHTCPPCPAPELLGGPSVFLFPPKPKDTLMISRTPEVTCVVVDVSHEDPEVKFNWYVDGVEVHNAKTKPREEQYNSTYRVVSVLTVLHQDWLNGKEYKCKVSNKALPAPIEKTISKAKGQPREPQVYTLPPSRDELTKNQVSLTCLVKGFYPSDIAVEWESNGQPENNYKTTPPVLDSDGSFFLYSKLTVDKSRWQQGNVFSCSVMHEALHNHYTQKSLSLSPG
light: DIVLTQSPASLAVSLGQRATISCRASESVDSYGQSYMHWYQQKAGQPPKLLIYLASNLESGVPARFSGSGSRTDFTLTIDPVQAEDAATYYCQQNAEDSRTFGGGTKLEIKGGGGSGGGGSDIQMTQSPASLSVSVGDTITLTCHASQNIDVWLSWFQQKPGNIPKLLIYKASNLHTGVPSRFSGSGSGTGFTLTISSLQPEDIATYYCQQAHSYPFTFGGGTKLEIKRTVAAPSVFIFPPSDEQLKSGTASVVCLLNNFYPREAKVQWKVDNALQSGNSQESVTEQDSKDSTYSLSSTLTLSKADYEKHKVYACEVTHQGLSSPVTKSFNRGEC
notes: also called TBTI/DVD-Ig format
- Kd [10]: 0.0263 nM
- koff [10]: 0.00015 s⁻¹
- kon [10]: 5.7e+06 M⁻¹ s⁻¹
